Laboratory results from patent publication US20140364360A1.

Legend:
CCR5 (human) [1] = target: CCR5 (human) (UniProt P51681); assay: flow cytometry competition on CD8+ T cells of human PBMC; 5P12-RANTES at 100 ng/ml or greater; competitor antibody 2D7
CCR5 (human) [2] = target: CCR5 (human) (UniProt P51681); assay: flow cytometry competition on CD8+ T cells of human PBMC; 5P12-RANTES at 0.8 ng/ml or less; competitor antibody 2D7

UniProt P51681, sequence (P51681 whole entry): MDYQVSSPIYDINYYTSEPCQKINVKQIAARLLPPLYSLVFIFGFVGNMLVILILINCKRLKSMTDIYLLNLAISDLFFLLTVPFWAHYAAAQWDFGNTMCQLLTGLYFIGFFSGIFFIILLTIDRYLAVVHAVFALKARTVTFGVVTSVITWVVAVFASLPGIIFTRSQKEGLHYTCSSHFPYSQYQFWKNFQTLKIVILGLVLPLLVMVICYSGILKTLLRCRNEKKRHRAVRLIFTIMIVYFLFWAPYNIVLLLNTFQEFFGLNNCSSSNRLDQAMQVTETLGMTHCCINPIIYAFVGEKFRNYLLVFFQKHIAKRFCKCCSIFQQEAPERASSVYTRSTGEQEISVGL

For 5P12-RANTES (ligand), the 2D7% binding (CCR5 (human) [1]) was less than 1% and the 2D7% binding (CCR5 (human) [2]) was 20%.
